# From PMC8790125, “Molecular Mechanism of SARS-CoVs Orf6 Targeting the Rae1–Nup98 Complex to Compete With mRNA Nuclear Export”
# Target: Rae1;Nup98 GLEBS (human;human, UniProt P78406;P52948-3 1-368;157-213, |)
# Experiment: ITC
# Conditions: protein: recombinant;recombinant; tags: His tag on the complex (HisTrap); copies: 1;1
# Chain of Rae1;Nup98 GLEBS (P78406 whole entry, chain 1 of 2): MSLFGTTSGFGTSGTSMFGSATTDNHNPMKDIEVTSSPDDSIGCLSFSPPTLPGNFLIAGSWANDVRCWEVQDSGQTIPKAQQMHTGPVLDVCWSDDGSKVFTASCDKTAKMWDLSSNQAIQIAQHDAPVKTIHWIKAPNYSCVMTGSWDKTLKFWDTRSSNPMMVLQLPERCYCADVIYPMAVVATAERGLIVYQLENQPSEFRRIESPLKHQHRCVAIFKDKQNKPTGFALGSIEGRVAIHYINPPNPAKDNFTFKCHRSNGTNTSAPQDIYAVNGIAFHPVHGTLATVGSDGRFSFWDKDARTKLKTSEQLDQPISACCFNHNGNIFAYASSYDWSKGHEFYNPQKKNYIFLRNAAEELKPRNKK
# Chain of Rae1;Nup98 GLEBS (P52948 157-213, chain 2 of 2): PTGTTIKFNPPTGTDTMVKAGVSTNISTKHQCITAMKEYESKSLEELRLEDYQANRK
binder,measurement,value
UUUUUUUUUUUUUU (ssRNA) [14-mer poly(U) ssRNA],binding result,binds
